Experimental findings from paper PMC7655094 are described below.

Several values for one entry are separate records, joined by “and”; a condition that tells them apart may be missing. Equal values may be shown once.

The experiment concerns the target CD16 expressed by Jurkat-CD16 cells (UniProt P08637). Put plainly: flow cytometry on cells.
Chain of UniProt P08637 (P08637 17-254): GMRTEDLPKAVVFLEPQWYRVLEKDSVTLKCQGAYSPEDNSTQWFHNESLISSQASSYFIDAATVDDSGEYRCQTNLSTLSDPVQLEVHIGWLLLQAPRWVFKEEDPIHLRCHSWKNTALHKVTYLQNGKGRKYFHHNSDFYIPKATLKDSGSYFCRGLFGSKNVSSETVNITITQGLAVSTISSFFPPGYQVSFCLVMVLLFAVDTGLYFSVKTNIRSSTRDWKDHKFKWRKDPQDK

On to “goat-produced cetuximab (gCetuximab) (antibody)”, for which the MFI of bound competitor anti-CD16-PE/3G8 is 25.1 and 28.1 and 21.8.
